# According to PMC12441119 (Cell Discovery, 2025):
# Substitutions are numbered along the chain they refer to. Names and notes keep the numbering of the source.
# B1: HOIP (residues 697–852) (domain or fragment, UniProt Q96EP0 697-852, looked up)
# chain: QECAVCGWALPHNRMQALTSCECTICPDCFRQHFTIALKEKHITDMVCPACGRPDLTDDTQLLSYFSTLDIQLRESLEPDAYALFHKKLTEGVLMRDPKFLWCAQCSFGFIYEREQLEATCPQCHQTFCVRCKRQWEEQHRGRSCEDFQNWKRMND
# notes: The limits are printed for the M1-8Ub experiment; for the STK4 experiment the text says only 'the RING1-IBR region of HOIP'; also called HOIP RING1-IBR; RING1-IBR region; source: E. coli BL21 (DE3), purified (glutathione resin, SEC)
# B2: STK4 (residues 1–326) K59R (domain or fragment, human, UniProt Q13043 1-326, looked up)
# chain: METVQLRNPPRRQLKKLDEDSLTKQPEEVFDVLEKLGEGSYGSVYKAIHKETGQIVAIRQVPVESDLQEIIKEISIMQQCDSPHVVKYYGSYFKNTDLWIVMEYCGAGSVSDIIRLRNKTLTEDEIATILQSTLKGLEYLHFMRKIHRDIKAGNILLNTEGHAKLADFGVAGQLTDTMAKRNTVIGTPFWMAPEVIQEIGYNCVADIWSLGITAIEMAEGKPPYADIHPMRAIFMIPTNPPPTFRKPELWSDNFTDFVKQCLVKSPEQRATATQLLQHPFVRSAKGVSILRDLINEAMDVKLKRQESQQREVDQDDEENSEEDEMD
# notes: also called KD; source: E. coli BL21 (DE3), purified (Ni-NTA, SEC)
# B3: HOIP (residues 697–1072) S1066E (domain or fragment, UniProt Q96EP0 697-1072, looked up)
# chain: QECAVCGWALPHNRMQALTSCECTICPDCFRQHFTIALKEKHITDMVCPACGRPDLTDDTQLLSYFSTLDIQLRESLEPDAYALFHKKLTEGVLMRDPKFLWCAQCSFGFIYEREQLEATCPQCHQTFCVRCKRQWEEQHRGRSCEDFQNWKRMNDPEYQAQGLAMYLQENGIDCPKCKFSYALARGGCMHFHCTQCRHQFCSGCYNAFYAKNKCPEPNCRVKKSLHGHHPRDCLFYLRDWTALRLQKLLQDNNVMFNTEPPAGARAVPGGGCRVIEQKEVPNGLRDEACGKETPAGYAGLCQAHYKEYLVSLINAHSLDPATLYEVEELETATERYLHVRPQPLAGEDPPAYQARLLQKLTEEVPLGQEIPRRRK
# notes: also called phosphomimic S1066E mutant; source: E. coli BL21 (DE3), purified
# B4: HOIP (residues 697–1072) (domain or fragment, UniProt Q96EP0 697-1072, looked up)
# chain: B3 chain with E370S
# notes: also called RING1-IBR-RING2-LDD; HOIP RBR-LDD; source: E. coli BL21 (DE3), purified (glutathione resin, SEC)
# B5: STK4 (residues 11–326) K59R (domain or fragment, human, UniProt Q13043 11-326, looked up)
# chain: RRQLKKLDEDSLTKQPEEVFDVLEKLGEGSYGSVYKAIHKETGQIVAIRQVPVESDLQEIIKEISIMQQCDSPHVVKYYGSYFKNTDLWIVMEYCGAGSVSDIIRLRNKTLTEDEIATILQSTLKGLEYLHFMRKIHRDIKAGNILLNTEGHAKLADFGVAGQLTDTMAKRNTVIGTPFWMAPEVIQEIGYNCVADIWSLGITAIEMAEGKPPYADIHPMRAIFMIPTNPPPTFRKPELWSDNFTDFVKQCLVKSPEQRATATQLLQHPFVRSAKGVSILRDLINEAMDVKLKRQESQQREVDQDDEENSEEDEMD
# notes: Monomer-dimer equilibrium in solution; dimer in the crystal; also called STK4 KD; source: E. coli BL21 (DE3), purified (Ni-NTA, SEC)
# B6: HOIP RING1 (residues 697–793) T731A (domain or fragment, UniProt Q96EP0 697-793, looked up)
# chain: QECAVCGWALPHNRMQALTSCECTICPDCFRQHFAIALKEKHITDMVCPACGRPDLTDDTQLLSYFSTLDIQLRESLEPDAYALFHKKLTEGVLMRD
# notes: source: E. coli BL21 (DE3), purified
# B7: STK4 (residues 1–487) K59R (enzyme, human, UniProt Q13043 1-487, looked up)
# chain: METVQLRNPPRRQLKKLDEDSLTKQPEEVFDVLEKLGEGSYGSVYKAIHKETGQIVAIRQVPVESDLQEIIKEISIMQQCDSPHVVKYYGSYFKNTDLWIVMEYCGAGSVSDIIRLRNKTLTEDEIATILQSTLKGLEYLHFMRKIHRDIKAGNILLNTEGHAKLADFGVAGQLTDTMAKRNTVIGTPFWMAPEVIQEIGYNCVADIWSLGITAIEMAEGKPPYADIHPMRAIFMIPTNPPPTFRKPELWSDNFTDFVKQCLVKSPEQRATATQLLQHPFVRSAKGVSILRDLINEAMDVKLKRQESQQREVDQDDEENSEEDEMDSGTMVRAVGDEMGTVRVASTMTDGANTMIEHDDTLPSQLGTMVINAEDEEEEGTMKRRDETMQPAKPSFLEYFEQKEKENQINSFGKSVPGPLKNSSDWKIPQDGDYEFLKSWTVEDLQKRLLALDPMMEQEIEEIRQKYQSKRQPILDAIEAKKRRQQNF
# notes: The tag could be cut by HRV 3C protease 'if desired'; also called kinase-dead full-length STK4; MST1; source: E. coli BL21 (DE3), purified (Ni-NTA, SEC)
# Experiments:
# M1-8Ub = biological target: T1, M1-8Ub (UniProt P0CG48 1-76; P0CG48 1-76; P0CG48 1-76; P0CG48 1-76; P0CG48 1-76; P0CG48 1-76; …); assay: SEC; each protein alone and the mixture at matched concentrations on Superdex 200 Increase 10/300 GL or Superdex 75 Increase 10/300 GL; a forward shift or increase of the peak read qualitatively; fractions on SDS-PAGE (Fig. 1c: 20 μM HOIP RING2-LDD, 30 μM STK4 KD, Superdex 75 Increase); settings: both partners purified
# T1 construct: ubiquitin, unit 1 of 8, units joined head to tail by peptide bonds (M1-linked); ubiquitin, unit 2 of 8; ubiquitin, unit 3 of 8; ubiquitin, unit 4 of 8; ubiquitin, unit 5 of 8; ubiquitin, unit 6 of 8; ubiquitin, unit 7 of 8; ubiquitin, unit 8 of 8; also called linear octa-ubiquitin; polyubiquitin chain; source: E. coli BL21 (DE3), purified
# HOIP (residues 697–1072) = biological target: B4; assay: as above; settings: both partners purified
# linear tetra-Ub (M1-4Ub) = biological target: T2, linear tetra-Ub (M1-4Ub) (UniProt P0CG48 1-76; P0CG48 1-76; P0CG48 1-76; P0CG48 1-76); assay: as above; settings: both partners purified
# T2 construct: ubiquitin, unit 1 of 4, units joined head to tail by peptide bonds (M1-linked); ubiquitin, unit 2 of 4; ubiquitin, unit 3 of 4; ubiquitin, unit 4 of 4; source: E. coli BL21 (DE3), purified
# linear di-Ub (M1-2Ub) = biological target: T3, linear di-Ub (M1-2Ub) (UniProt P0CG48 1-76; P0CG48 1-76); assay: as above; settings: both partners purified
# T3 construct: ubiquitin, unit 1 of 2, units joined head to tail by peptide bonds (M1-linked); ubiquitin, unit 2 of 2; source: E. coli BL21 (DE3), purified
# [1] = biological target: B7; assay: ITC; MicroCal PEAQ-ITC, 25 °C; 20 mM Tris-HCl pH 7.5, 100 mM NaCl, 1 mM DTT; ~50 μM in the cell, ~500 μM in the syringe; one-site binding model; settings: both partners purified
# [2] = biological target: the molecule itself; assay: AUC; sedimentation velocity, 42,000 rpm, 20 °C, c(s) distribution (SEDFIT); mixtures of HOIP RING2-LDD with STK4 KD at molar ratios 1:1 or 1:5
# UBE2L3 = biological target: T4, UBE2L3 (human, UniProt P68036 1-154); assay: SEC; each protein alone and the mixture at matched concentrations on Superdex 200 Increase 10/300 GL or Superdex 75 Increase 10/300 GL; a forward shift or increase of the peak read qualitatively; fractions on SDS-PAGE (Fig. 1c: 20 μM HOIP RING2-LDD, 30 μM STK4 KD, Superdex 75 Increase); settings: both partners purified
# T4 construct: UBE2L3 (E2), human; source: E. coli, purified
# HOIP (residues 480–1072) = biological target: T5, HOIP (residues 480–1072) (UniProt Q96EP0 480-1072); assay: as above; settings: both partners purified
# T5 construct: source: E. coli BL21 (DE3), purified (glutathione resin, SEC)
# T5 sequence (looked up): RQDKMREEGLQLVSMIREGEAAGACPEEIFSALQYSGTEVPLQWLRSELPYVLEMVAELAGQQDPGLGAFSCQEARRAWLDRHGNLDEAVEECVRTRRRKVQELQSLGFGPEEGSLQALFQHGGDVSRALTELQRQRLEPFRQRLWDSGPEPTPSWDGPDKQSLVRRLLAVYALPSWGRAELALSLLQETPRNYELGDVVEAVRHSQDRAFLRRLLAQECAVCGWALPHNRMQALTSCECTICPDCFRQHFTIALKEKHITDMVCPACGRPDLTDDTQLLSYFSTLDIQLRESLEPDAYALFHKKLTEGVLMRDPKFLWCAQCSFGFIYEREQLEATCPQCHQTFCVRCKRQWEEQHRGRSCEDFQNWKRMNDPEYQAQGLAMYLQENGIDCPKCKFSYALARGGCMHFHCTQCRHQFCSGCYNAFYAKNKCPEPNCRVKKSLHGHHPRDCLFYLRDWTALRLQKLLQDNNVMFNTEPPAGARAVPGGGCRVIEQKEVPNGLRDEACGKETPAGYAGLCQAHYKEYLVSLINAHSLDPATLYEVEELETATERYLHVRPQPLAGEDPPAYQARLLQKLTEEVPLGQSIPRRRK
# T4 sequence (P68036 whole entry): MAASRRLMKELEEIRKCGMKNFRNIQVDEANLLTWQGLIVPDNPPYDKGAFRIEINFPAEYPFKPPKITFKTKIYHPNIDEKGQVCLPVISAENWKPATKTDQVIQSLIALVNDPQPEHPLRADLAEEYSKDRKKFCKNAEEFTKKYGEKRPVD
binder,measurement,setting,value
B1,binding result,M1-8Ub,binds
B2,binding result,HOIP (residues 697–1072),binds
B3,binding result,linear tetra-Ub (M1-4Ub),binds
same,binding result,linear di-Ub (M1-2Ub),binds
B4,Kd,[1],~102 µM
B5,binding result,[2],binds
B6,binding result,UBE2L3,binds
B7,binding result,HOIP (residues 480–1072),binds
